Results from patent US20110002927A1 (DELENEX THERAPEUTICS, published 2011).

Experiments:
[1] = molecular target: T1, recombinant human TNF-alpha (rhTNF-α) (human, UniProt P01375 77-233); test: cell-based or functional assay
[2] = molecular target: T1, recombinant human TNF-alpha (rhTNF-α); test: method not stated (data not shown)

T1 sequence (P01375 77-233 limits assumed): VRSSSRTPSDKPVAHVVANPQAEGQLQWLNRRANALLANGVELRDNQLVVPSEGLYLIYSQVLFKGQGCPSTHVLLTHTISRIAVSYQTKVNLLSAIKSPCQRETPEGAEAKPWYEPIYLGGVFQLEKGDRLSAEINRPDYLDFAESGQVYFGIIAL

Kd [2]: 2.19 nM
koff [2]: 0.0126 s⁻¹
kon [2]: 5.72e+06 M⁻¹ s⁻¹
B1: ESBA105 (scFv)
scFv: DIVMTQSPSSLSASVGDRVTLTCTASQSVSNDVVWYQQRPGKAPKLLIYSAFNRYTGVPSRFSGRGYGTDFTLTISSLQPEDVAVYYCQQDYNSPRTFGQGTKLEVKRGGGGSGGGGSGGGGSSGGGSQVQLVQSGAEVKKPGASVKVSCTASGYTFTHYGMNWVRQAPGKGLEWMGWINTYTGEPTYADKFKDRFTFSLETSASTVYMELTSLTSDDTAVYYCARERGDAMDYWGQGTLVTVSS
notes: expressed in and purified from E. coli; 26 kDa; also called E105; anti-TNFalpha single-chain antibody (scFv) ESBA105
EC50 in the L929 TNF-α assay (rescue of actinomycin D sensitized mouse L929 fibroblasts from rhTNF-α induced apoptosis, XTT) [1]: 0.0125 µg/mL
